The target in this experiment is human secretory immunoglobulin A (SIgA) (human) (UniProt P01833). Description: SPR. Background: SPR reads the build-up and loss of mass on a sensor chip optically.
UniProt P01833, sequence (P01833 whole entry, looked up): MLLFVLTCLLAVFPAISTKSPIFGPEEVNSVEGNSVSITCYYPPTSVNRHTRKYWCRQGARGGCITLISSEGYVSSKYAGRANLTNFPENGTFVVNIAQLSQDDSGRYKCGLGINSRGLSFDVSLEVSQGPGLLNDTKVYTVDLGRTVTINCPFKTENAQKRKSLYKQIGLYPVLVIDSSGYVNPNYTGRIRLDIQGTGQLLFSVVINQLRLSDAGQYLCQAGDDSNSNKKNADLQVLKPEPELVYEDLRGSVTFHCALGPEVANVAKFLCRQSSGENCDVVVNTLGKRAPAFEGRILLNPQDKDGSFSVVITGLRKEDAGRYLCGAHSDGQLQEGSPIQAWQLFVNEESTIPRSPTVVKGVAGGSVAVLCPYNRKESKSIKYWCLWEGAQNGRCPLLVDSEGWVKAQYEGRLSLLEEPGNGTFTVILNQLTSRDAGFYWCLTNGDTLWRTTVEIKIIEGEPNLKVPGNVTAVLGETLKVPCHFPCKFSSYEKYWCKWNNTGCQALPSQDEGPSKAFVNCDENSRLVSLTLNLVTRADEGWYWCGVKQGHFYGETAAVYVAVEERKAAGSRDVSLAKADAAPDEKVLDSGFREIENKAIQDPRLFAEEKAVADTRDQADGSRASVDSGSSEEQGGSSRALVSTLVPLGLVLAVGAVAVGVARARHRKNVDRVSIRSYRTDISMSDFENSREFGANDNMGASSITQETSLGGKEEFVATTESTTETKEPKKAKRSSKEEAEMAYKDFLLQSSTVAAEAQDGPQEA

“EsiB (E. coli secretory immunoglobulin A-binding protein), recombinant, without signal peptide (natural protein)” showed a Kd of 30.2 µM, a koff of 0.042 s⁻¹ and a kon of 1390 M⁻¹ s⁻¹.

As usually defined, the Kd is the concentration at which binding is half-saturated. Higher therefore signals lower affinity. Usually koff stands for the first-order rate constant of dissociation. The low end stands for slow dissociation, the high end for fast dissociation. One may read the kon as the rate constant with which the complex forms. Read a low kon as slow association.

For the origin of these results see publication PMC3735183.
